Assay results reported in patent publication US8106168B2, “Metalloproteinase binding proteins” (Dyax Corp., priority 2005, dated 2012).

B1: M0041-A05: Fab that binds human MMP-14; DNA LV SEQ ID NO: 104, HV SEQ ID NO: 105 (antibody, V domains shown)
VL: QDIQMTQSPSSLSASVGDRVTITCRASQNINSYLNWYQQKPGKAPKLLIYAASSLQSGVPSRFSGSGSGTDFTLTISSLQPEDFVTYYCQQSYSTPKTFGQGTKVEIK
VH: EVQLLESGGGLVQPGGSLRLSCAASGFTFSVYTMHWVRQAPGKGLEWVSVIYPSGGLTIYADSVKGRFTISRDNSKNTLYLQMNSLRAEDTAVYYCARNRGYYAPMDVWGQGTTVTVSS
modifications: Synthetically generated oligonucleotide
B2: M0040-H04: Fab that binds human MMP-14; DNA LV SEQ ID NO: 100, HV SEQ ID NO: 101 (antibody, V domains shown)
VL: QDIQMTQSPDSLAVSLGERATLNCRSSQSVLYSPNNKNYLAWYQQKAGQPPKLLIYWASFRESGVPERFSGSGSGTDFTLTISSLQAEDVAVYYCQQYHTPPWTFGQGTKVEIK
VH: EVQLLESGGGLVQPGGSLRLSCAASGFTFSSYDMVWVRQAPGKGLEWVSSISPSGGNTQYADSVKGRFTISRDNSKNTLYLQMNSLRAEDTAVYYCAKVAAMAPWYFDYWGQGTLVTVSS
modifications: Synthetically generated oligonucleotide
B3: M0040-D08: Fab that binds human MMP-14; DNA LV SEQ ID NO: 94, HV SEQ ID NO: 95 (antibody, V domains shown)
VL: QSALTQSPSASASLGSSVKLTCTLASEHSGYIIAWHQQQPGKAPRFLMKLDGTGNFNKGSGVPDRFSGYSSGADRYLTISNLQSEDEADYYCETWDSTTLWVFGGGTKLTVL
VH: EVQLLESGGGLVQPGGSLRLSCAASGFTFSHYGMTWVRQAPGKGLEWVSSIVPSGGYTAYADSVKGRFTISRDNSKNTLYLQMNSLRAEDTAVYYCTTGLSSSGTRWFDAWGQGTLVTVSS
modifications: Synthetically generated oligonucleotide
B4: M0040-H09: Fab that binds human MMP-14; DNA LV SEQ ID NO: 102, HV SEQ ID NO: 103 (protein)
chain 1: QSELTQDPAVSVALGQAVIITCQGDSLRTYYPSWYQQKPGQAPTLLVYGKNKRPSGVPDRFSGSRSGDTASLIITGAQAEDDADYYCNSRDGSGHLFVFGPGTTVTVL
chain 2: EVQLLESGGGLVQPGGSLRLSCAASGFTFSLYPMQWVRQAPGKGLEWVSYIRSSGGKTHYADSVKGRFTISRDNSKNTLYLQMNSLRAEDTAVYYCARVGMGSGWYTGYFDLWGRGTLVTVSS
modifications: Synthetically generated oligonucleotide
B5: M0040-G04: Fab that binds human MMP-14; DNA LV SEQ ID NO: 98, HV SEQ ID NO: 99 (antibody, V domains shown)
VL: QSVLTQPPSASGTPGQRVTISCSGSRTNIGSDYVYWYQQLPGTAPKLLIYRNNERPSGVPDRFSGFKSGTSASLAISGLRSEDEADYYCASWDDRLSGPVFGGGTKLTVL
VH: EVQLLESGGGLVQPGGSLRLSCAASGFTFSQYHMLWVRQAPGKGLEWVSVIVSSGGFTFYADSVKGRFTISRDNSKNTLYLQMNSLRAEDTAVYYCARSYGGDAFDIWGQGTMVTVSS
modifications: Synthetically generated oligonucleotide
B6: M0040-F03: Fab that binds human MMP-14; DNA LV SEQ ID NO: 96, HV SEQ ID NO: 97 (antibody, V domains shown)
VL: QDIQMTQSPLSLPVTPGEPASISCRSGQSLLHSNGYNYLNWYLQKPGQSPQLLIYLGSYRASGVPDRFSGSGSGTDFTLKISRVEAEDVGLYYCMQALQTPLTFGVGTKVEIK
VH: EVQLLESGGGLVQPGGSLRLSCAASGFTFSMYVMSWVRQAPGKGLEWVSSISSSGGNTGYADSVKGRFTISRDNSKNTLYLQMNSLRAEDTAVYYCAKSSLYYDILAGPGFDYWGQGTLVTVSS
modifications: Synthetically generated oligonucleotide

target: MMP-14 (Homo sapiens, UniProt P50281); assay: Selection and phage ELISA screening of anti-MMP-14 Fabs; assay type: binding; details: Fab from FAB310 phage display library
Protocol: Strategy I: A 100-fold excess of the FAB310 library (e.g., an amount of the library that should contain 100 copies of each library member) was depleted of streptavidin-binding antibodies by incubating the library with 200 μL of streptavidin beads for 1 hour at room temperature (RT) with rotation. 500 nM of biotinylated MMP-14 was coupled to streptavidin beads by incubation with 100 μL of streptavidin beads. The MMP-14 beads were then incubated with the streptavidin-depleted library for 1 hour at RT with rotation. The beads were then rinsed three times with 2% MTRIS/0.1% Tween, transferred to a fresh tube and washed an additional three times with 2% MTRIS/0.1% Tween, and transferred to a fresh tube and washed a final time with Round 1 TRIS buffer (50 mM TRIS; 50 mM CaCl2; 150 mM NaCl, pH 7.5).
MMP-14 binding antibodies were eluted from the beads by re-suspension in 1 mL 2% MTRIS containing 2.5 μM TIMP-2 and incubation for 1 hour at RT with rotation. The beads were then washed three times with 2% MTRIS/0.1% Tween, transferred to a fresh tube and washed three times with TRIS/0.1% Tween, and transferred to a fresh tube and washed a final time with TRIS. 1 mL output was used for infection of 9 mL TG1 bacteria (grown to OD600=0.5). The beads were further eluted by suspension in 1 mL 100 mM TEA for 10 minutes. The supernatant was neutralized with 500 μl TRIS/HCl pH 7.5. 1 mL of the second elution was used for infection of 9 mL TG1 bacteria (grown to OD600=0.5).
Two additional rounds of selection were carried out under the same conditions as the first round, except that the streptavidin beads were loaded with 100 nM biotinylated MMP-14 and the number of washes were doubled (6 times with 2% MTRIS/0.1% Tween, 6 times with TRIS/0.1% Tween and 2 times with TRIS), and Round 2/3 Tris buffer (50 mM TRIS; 5 mM CaCl2; 150 mM NaCl pH=7.5) was used for incubation and wash.
TIMP-2 was coupled to carboxylic beads, then complexed with a combination of biotinylated MMP-14 (500 nM each). The complexed beads were incubated with a 100 fold excess of FAB310 library that had been previously depleted by incubation with streptavidin beads and carboxylic beads. Elution/washing was carried out as for Strategy I.
Two additional rounds of selection were carried out, essentially as described for Strategy I, except that only 100 nM of each of MMP-14 were used in the bead complexes.
384-well plates were coated with biotinylated BSA (2 μg/ml in 50 mM TRIS; 5 mM CaCl2; 150 mM NaCl, pH 7.5), then washed 3 times with 50 mM TRIS; 5 mM CaCl2; 150 mM NaCl, pH 7.5; 0.1% Tween. Streptavidin was captured on the coated plates by incubation with 10 μg/mL streptavidin in 50 mM TRIS; 5 mM CaCl2; 150 mM NaCl pH 7.5; 0.5% Gelatin, followed by a wash with 50 mM TRIS; 5 mM CaCl2; 150 mM NaCl pH=7.5; 0.1% Tween. On the day the assay was to be performed, biotinylated MMP-14 (1 μg/ml) was captured in 50 mM TRIS; 5 mM CaCl2; 150 mM NaCl, pH 7.5.
95 clones were picked from each of Round 2 and Round 3 of each selection strategy, producing 12 masterplates. ELISA was run on the MiniTrak-5 deck according to SOP.

Bind to human MMP-14, bind to human MMP-14:
B1
B2
B3
B4
B5
B6
